Measurements taken from publication PMC6083883 (Molecular cell, 2018).

Target: recombinant biotin-FLAG-tagged human ATM (human, UniProt Q13315 1-3056, biotin)
Assay: pull-down

recombinant biotin-FLAG-tagged human ATM, sequence (Q13315 whole entry): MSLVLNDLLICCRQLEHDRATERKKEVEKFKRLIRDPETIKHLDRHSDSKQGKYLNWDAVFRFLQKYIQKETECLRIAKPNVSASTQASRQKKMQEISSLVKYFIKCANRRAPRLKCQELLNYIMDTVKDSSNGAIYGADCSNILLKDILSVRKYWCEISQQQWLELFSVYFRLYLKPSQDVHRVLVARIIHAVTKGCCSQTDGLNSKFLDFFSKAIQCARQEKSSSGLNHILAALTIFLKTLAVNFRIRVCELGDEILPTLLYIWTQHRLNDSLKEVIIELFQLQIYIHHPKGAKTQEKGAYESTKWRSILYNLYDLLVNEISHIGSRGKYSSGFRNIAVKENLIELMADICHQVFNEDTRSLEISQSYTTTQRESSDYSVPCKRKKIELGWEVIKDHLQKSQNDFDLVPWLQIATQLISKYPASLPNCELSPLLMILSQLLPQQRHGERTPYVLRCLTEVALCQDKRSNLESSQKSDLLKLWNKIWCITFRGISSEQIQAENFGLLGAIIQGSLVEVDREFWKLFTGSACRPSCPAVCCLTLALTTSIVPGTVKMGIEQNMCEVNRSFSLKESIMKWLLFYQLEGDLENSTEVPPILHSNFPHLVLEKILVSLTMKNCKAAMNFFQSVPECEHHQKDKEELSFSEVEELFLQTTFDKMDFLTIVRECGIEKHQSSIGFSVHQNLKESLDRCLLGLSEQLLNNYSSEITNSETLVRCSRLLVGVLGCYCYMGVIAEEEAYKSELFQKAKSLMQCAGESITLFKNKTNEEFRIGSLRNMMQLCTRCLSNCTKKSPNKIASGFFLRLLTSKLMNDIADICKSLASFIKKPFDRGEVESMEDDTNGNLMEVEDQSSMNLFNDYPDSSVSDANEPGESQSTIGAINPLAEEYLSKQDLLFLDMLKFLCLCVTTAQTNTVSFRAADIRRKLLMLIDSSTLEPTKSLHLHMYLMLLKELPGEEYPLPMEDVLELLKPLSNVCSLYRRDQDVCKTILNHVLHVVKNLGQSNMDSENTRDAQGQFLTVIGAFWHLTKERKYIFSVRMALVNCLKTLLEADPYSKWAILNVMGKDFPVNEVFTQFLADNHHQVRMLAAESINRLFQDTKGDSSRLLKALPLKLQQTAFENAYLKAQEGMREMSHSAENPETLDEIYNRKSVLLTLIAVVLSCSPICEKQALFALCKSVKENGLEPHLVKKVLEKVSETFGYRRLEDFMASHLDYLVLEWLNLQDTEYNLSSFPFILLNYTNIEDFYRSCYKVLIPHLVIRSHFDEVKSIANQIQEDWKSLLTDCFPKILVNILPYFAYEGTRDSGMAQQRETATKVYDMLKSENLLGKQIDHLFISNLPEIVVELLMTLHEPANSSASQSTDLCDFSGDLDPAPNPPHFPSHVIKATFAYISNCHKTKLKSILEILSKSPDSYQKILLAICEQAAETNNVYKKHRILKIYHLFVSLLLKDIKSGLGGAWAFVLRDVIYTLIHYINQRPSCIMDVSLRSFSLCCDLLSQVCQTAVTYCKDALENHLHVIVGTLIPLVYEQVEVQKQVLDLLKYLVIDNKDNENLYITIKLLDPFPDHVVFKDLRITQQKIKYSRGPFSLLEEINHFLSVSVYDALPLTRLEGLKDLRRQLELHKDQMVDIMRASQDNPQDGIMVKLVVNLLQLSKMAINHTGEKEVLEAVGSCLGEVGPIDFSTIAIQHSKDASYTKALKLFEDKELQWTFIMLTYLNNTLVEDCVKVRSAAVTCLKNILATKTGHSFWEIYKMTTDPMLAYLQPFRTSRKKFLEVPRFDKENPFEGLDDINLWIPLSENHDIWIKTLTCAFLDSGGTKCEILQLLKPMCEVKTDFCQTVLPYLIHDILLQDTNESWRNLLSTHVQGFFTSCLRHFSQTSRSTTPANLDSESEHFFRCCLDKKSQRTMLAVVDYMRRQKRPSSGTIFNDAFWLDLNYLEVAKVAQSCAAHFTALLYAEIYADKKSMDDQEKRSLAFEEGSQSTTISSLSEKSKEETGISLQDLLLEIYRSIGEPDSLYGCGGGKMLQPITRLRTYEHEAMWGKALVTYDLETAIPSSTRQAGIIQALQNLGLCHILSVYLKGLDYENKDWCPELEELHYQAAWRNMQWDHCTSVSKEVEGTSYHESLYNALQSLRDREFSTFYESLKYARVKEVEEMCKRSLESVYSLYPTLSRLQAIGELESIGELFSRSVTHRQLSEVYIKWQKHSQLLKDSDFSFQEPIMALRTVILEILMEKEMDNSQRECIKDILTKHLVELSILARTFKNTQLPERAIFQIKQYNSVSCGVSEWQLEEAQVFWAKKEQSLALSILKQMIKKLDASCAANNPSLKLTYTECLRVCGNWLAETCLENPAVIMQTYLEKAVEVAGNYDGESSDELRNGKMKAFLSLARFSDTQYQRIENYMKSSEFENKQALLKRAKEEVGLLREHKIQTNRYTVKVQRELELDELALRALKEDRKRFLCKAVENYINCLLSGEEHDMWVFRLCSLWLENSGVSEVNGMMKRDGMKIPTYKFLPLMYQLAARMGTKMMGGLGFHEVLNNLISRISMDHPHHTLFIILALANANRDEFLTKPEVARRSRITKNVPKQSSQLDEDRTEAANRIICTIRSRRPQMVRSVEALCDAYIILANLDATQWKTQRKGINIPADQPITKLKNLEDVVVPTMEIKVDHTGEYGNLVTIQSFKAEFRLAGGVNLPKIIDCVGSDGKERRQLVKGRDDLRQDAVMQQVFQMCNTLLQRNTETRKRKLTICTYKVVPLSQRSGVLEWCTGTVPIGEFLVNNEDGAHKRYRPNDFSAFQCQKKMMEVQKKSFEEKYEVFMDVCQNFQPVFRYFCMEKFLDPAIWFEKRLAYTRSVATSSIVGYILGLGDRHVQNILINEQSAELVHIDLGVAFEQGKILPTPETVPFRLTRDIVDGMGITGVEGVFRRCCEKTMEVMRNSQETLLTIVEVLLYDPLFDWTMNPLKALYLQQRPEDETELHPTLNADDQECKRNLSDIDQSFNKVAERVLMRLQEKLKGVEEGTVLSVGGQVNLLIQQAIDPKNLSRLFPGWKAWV

B1: MBP-tagged human MRI (natural protein, UniProt Q9BWK5 1-157, looked up)
chain: METLQSETKTRVLPSWLTAQVATKNVAPMKAPKRMRMAAVPVAAARLPATRTVYCMNEAEIVDVALGILIESRKQEKACEQPALAGADNPEHSPPCSVSPHTSSGSSSEEEDSGKQALAPGLSPSQRPGGSSSACSRSPEEEEEEDVLKYVREIFFS
B1: binds.
